One molecule from paper PMC4259466 (Nature communications, 2014) can be followed below.

For this assay, the target named is Aurora B-phosphorylated WT His-PKM2 (human, UniProt P14618 1-531, phosphothreonine at 45 (by Aurora B in vitro)). The experiment in a line: pull-down.
Chain of Aurora B-phosphorylated WT His-PKM2 (P14618 whole entry): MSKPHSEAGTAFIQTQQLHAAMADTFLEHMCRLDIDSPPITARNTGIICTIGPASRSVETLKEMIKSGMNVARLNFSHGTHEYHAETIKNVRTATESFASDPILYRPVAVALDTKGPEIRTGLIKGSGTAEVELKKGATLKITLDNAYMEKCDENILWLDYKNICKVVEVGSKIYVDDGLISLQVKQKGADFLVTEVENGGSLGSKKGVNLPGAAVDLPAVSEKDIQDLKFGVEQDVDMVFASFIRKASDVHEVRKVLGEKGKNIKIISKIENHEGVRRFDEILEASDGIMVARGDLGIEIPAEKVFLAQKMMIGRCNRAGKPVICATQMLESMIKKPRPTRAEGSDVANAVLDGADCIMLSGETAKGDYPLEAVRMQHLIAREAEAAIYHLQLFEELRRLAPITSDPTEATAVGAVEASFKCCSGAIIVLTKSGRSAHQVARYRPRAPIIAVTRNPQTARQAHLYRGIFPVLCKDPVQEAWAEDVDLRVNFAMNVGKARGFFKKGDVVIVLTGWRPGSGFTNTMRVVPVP

B1: GST-MLC2 (wild type, recombinant) (natural protein)
chain: MAPKKAKKRAGGANSNVFSMFEQTQIQEFKEAFTIMDQNRDGFIDKNDLRDTFAALGRVNVKNEEIDEMIKEAPGPINFTVFLTMFGEKLKGADPEETILNAFKVFDPEGKGVLKADYVREMLTTQAERFSKEEVDQMFAAFPPDVTGNLDYKNLVHIITHGEEKD
B1: the binding result is reported as “binds”.
